Source: IntAct's records for PubMed 25009770

Tests used:
[1] = target: T1, psmd9_human PSMD9 (UniProt O00233)
T1 sequence: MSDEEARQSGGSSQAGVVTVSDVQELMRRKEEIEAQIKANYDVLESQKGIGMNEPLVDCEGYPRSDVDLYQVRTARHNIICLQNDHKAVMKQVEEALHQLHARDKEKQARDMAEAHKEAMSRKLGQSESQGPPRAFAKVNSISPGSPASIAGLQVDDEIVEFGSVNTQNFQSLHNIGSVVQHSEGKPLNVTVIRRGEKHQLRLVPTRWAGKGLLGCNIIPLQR

[2] = target: T1, psmd9_human PSMD9; remark: listed apart in the source

effect of a mutation on the interaction [1]: decreasing interaction strength | effect of a mutation on the interaction [2]: disrupting interaction strength
Substance: Small ribosomal subunit protein uS11 (Homo sapiens) (from UniProt P62263) L151G
